Test results: patent US20260256741A1, “ANTICANCER MALEIMIDE DERIVATIVES FOR USE WITH IMMUNE CHECKPOINT BLOCKADE” (BROWN UNIVERSITY, priority 2022, published 2026)

How the values were obtained:
HT-29 CRC cells = assay: Western blot analysis of HT-29 CRC cells; type: cell-based, human; details: 250 ng/mL IFN-γ
Experimental: (§1) Recombinant Human TNF-α (Cat #300-01A, PeproTech, Rocky Hill, NJ, USA) and Recombinant Human IFN-γ (Cat #300-02, Peprotech, Rocky Hill, NJ, USA) were purchased for use in western blot analysis while rhTRAIL was generated in-house. Kim et al., J Biol Chem., 279(38):40044-52 (2004).
(§2) Cells were plated in a 6-well plate and incubated overnight before the spent media was replaced with drugged media. Drug treatment lasted for indicated durations. Protein was extracted using radioimmunoprecipitation (RIPA) assay buffer (Cat #R0278, Sigma-Aldrich, St. Louis, MO) containing cOmplete™, Mini, EDTA-free Protease Inhibitor Cocktail (Cat #4693159001, Roche, Basel, Switzerland) from sub-confluent cells. Denaturing sample buffer was added, samples were boiled at 95 degrees for 10 minutes, and an equal amount of protein lysate was electrophoresed through NuPAGE™ 4 to 12%, Bis-Tris, 1.5 mm, Mini Protein Gels (Invitrogen, Waltham, MA) then transferred to PVDF membranes. The PVDF membrane was blocked with 5% non-fat milk (Sigma-Aldrich, St. Louis, MO) in 1×TTBS. Primary antibodies were incubated with the transferred PVDF membrane in blocking buffer at 4° C. overnight. Secondary antibodies used included Goat anti-Rabbit IgG (H+L) Secondary Antibody, HRP (Cat #31460, Invitrogen, Waltham, MA), and Goat anti-Mouse IgG (H+L) Secondary Antibody, HRP (Cat #31430, Invitrogen, Waltham, MA). Signal was detected using Pierce™ ECL Western Blotting Substrate (Cat #32106, Thermo Scientific, Waltham, MA, USA) and a Syngene Imaging System (RRID: SCR_015770).

HCT-116 CRC cells = assay: Western blot analysis of HCT-116 CRC cells; type: cell-based, human; details: 250 ng/mL IFN-γ
Experimental: as §1, §2

B1: IFN-γ: Recombinant Human IFN-γ (Peprotech) used to treat tumor cells for western blot (protein, UniProt P01579 24-161, looked up)
Interferon gamma: QDPYVKEAENLKKYFNAGHSDVADNGTLFLGILKNWKEESDRKIMQSQIVSFYFKLFKNFKDDQSIQKSVETIKEDMNVKFFNSNKKKRDDFEKLTNYSVTDLNVQRKAIHELIQVMAELSPAAKTGKRKRSQMLFRG
gasdermin B expression (HT-29 CRC cells): increase in gasdermin B expression | gasdermin B expression (HCT-116 CRC cells): increase in gasdermin B expression
